Data published in patent publication US20240199754A1 (VANCOUVER BIOTECH LTD., priority 2021, published 2024).

Molecular target: T1, N1-29 synthetic oligopeptide of human GnRH receptor (human)
T1 construct: Synthetic peptide coated on microwells; also called human N1-29 peptide; N1-29 oligopeptide
T1 peptide: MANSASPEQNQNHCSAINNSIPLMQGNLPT
Assay: ELISA on well-coated N1-29 peptide, goat anti-human IgG-alkaline phosphatase, OD 405 nm
From the text: Goat anti-human IgG labeled with alkaline phosphatase was used as the second antibody for signal detection. P-nitrophenyl phosphate was used as the substrate and monitored at 405 nm and double log plot presented.

B1: GHR-106(hIgG4), humanized IgG4 GHR-106 monoclonal antibody (antibody, V domains shown)
VH: QVQLQESGPGLVKPSETLSLTCTVSGFSLSRYSVHWIRQPPGKGLEWIGMIWGGGSTDYNPSLKSRVTISKDNSKSQVFLKMSSVTAADTAMYYCARGNDGYYSFAYWGQGTLVTVSS
VL: DIVMTQSPDSLAVSLGERATINCKSSQSLLNSRTRKNYLAWYQQKPGQSPKLLIYWASTRESGVPDRFSGSGSGTDFTLTISSLQAEDVAVYYCKQSYNLYTFGQGTKLEIKR
notes: Humanized IgG4
binding result: binds
